Test [1] relates to PLCγ1 tSH2 domain (Src-mediated phosphorylation, Y^783). Briefly: in vitro Src kinase assay, 35mer-enhanced PLCγ1 tSH2 phosphorylation. The format is biochemical. The following applies: 1.25–5.0 μM 12mer, 2.5 μM 35mer, 0.085 μM Src, 45 min, 37°C; pY783 Western blot. Here is the method:
Fig 7 The pK15 CT domain enhances Src-mediated phosphorylation of the PLCγ1 tSH2 domain. (A) The purified PLCγ1 tSH2 domain (0.6 μM) was incubated with limiting amounts (0.085 μM) of recombinant purified Src kinase expressed in insect cells in the presence of increasing concentrations (1.25–5 μM) of phosphorylated peptides representing the last 12 (pK15 12mer) or 35 (pK15 35mer) amino acids of the pK15 cytoplasmic domain for 1 hour at 37°C. The reaction was stopped using SDS sample buffer and analysed by SDS-PAGE and Western blot using an antibody to the PLCγ1 pY^783 residue (top panel) or to the His tag on the recombinant tSH2 domain (bottom panel). […]
To test the impact of a pK15 CT fragment (pK15 CT^N2) or phosphorylated pK15 peptides representing the last 12 (DDLp[…]) or 35 ([…]pYEEVLFRN) amino acids of pK15 CT on the Src-mediated phosphorylation of the PLCγ1 tSH2 domain, GST-pK15CT^N2 was first phosphorylated with Src in vitro as described in the preceding paragraph. […] The reaction mix was then analysed by Western blot using an antibody to the phosphorylated Y^783 in the linker region of the PLCγ1 tSH2 domain and an antibody to the 5x His tag. […] Following a 45 min incubation at 37°C, the reaction mixture was analysed by Western blot as above.

Another test concerns PLCγ1 SA R586L or R694L. Briefly: GST-pulldown, PLCγ1 SA R586L or R694L. The format is binding. The following applies: phosphorylated, HEK 293T, versus WT. The method, then: (§1) Fig 3 Contribution of individual PLCγ1 SH2 domains to the interaction with phosphorylated pK15. The pK15 CT fused to GST, its Y^481F mutant, or GST alone were bound to glutathione beads, phosphorylated in vitro (+) or left unphosphorylated (-), and a GST pulldown was performed 32h after transfection into HEK-293T cells of expression vectors for S-tagged full-length PLCγ1 (FL) (A) or PLCγ1 SA (B) containing the indicated mutations. (C) pK15 CT WT, its Y^481F mutant or GST were bound to glutathione beads, phosphorylated in vitro (+) or left unphosphorylated (-), and used for a GST pulldown assay 32h after transfecting HEK 293T cells with expression vectors for S-tagged individual PLCγ1 nSH2 or cSH2 domains. […]
(§2) HEK293T cells were washed once with cold PBS 30 hours after transfection, lysed in IP buffer (50 mM Tris pH7.6, 60 mM NaCl, 6.25 mM EDTA, 1% (v/v) glycerol, 0.04% (v/v) NP-40) on ice for 30 minutes, sonicated shortly and cleared by centrifugation for 10 minutes at 20.000g, 4°C. […] Beads were then washed 5 times in 500 μl IP buffer (or for purified proteins IP buffer with 200 mM NaCl), suspended in 10 μl of 5x Laemmli sample buffer (60 mM Tris pH6.8, 24% (v/v) glycerol, 2% (v/v) SDS, 5% (v/v) β-mercaptoethanol, 0.01% Bromphenol Blue) and analysed by western blot.

The test system of another test is PLCγ1 SA R586L+R694L. Briefly: GST-pulldown, PLCγ1 SA double mutant. The class given is binding. The following applies: phosphorylated; HEK 293T. Here is the method:
as §1, §2

In the case of “DDLpYEEVLFPRN [pK15 12mer, phosphorylated peptide representing the last 12 amino acids of pK15 CT (DDLp…)]”, the “inhibition of 35mer-induced tSH2 phosphorylation” value in test [1] is on record as “could inhibit the increased PLCγ1 tSH2 phosphorylation induced by the 35mer peptide”.

B1: pK15 CT^WT: pK15 cytoplasmic tail fused to GST at its N-terminal end, phosphorylated in vitro by Src (protein)
chain: SQLLNEVELQEVNRDPPNVFGYASILVSGAEESREPSPQPDQSGMSILRVDGGSAFRIDTAQAATQPTDDLYEEVLFPRN
modifications: tyrosine-phosphorylated in vitro by Src; sites not stated for this construct; left off: GST, N-terminal, kept
On to B1, for which the “binding of mutants (GST-pulldown)” value in the test with PLCγ1 SA R586L or R694L is “strongly reduced binding”. Also, in the test on PLCγ1 SA R586L+R694L, the “binding of double mutant (GST-pulldown)” value is “completely eliminated the binding”.

The values above are taken from article PMC8244865, “Recruitment of phospholipase Cγ1 to the non-structural membrane protein pK15 of Kaposi Sarcoma-associated herpesvirus promotes its Src-dependent phosphorylation” (PLoS Pathogens, 2021).
